In the supplement of paper PMC10724198:
± gives the standard deviation of the averaged measurements.

System: Saccharomyces cerevisiae
Assay: protein stability index of tFT-peptide fusion (C-terminal peptide) (PSI (0-1 scale)); higher = more stable (slower turnover)
Conditions: genetic background: wild type; temperature: 30 C
Description: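 Multiplexed protein stability (MPS) profiling in S. cerevisiae. Random 12-aa peptides (tFT-X12 library) are fused to the C-terminus of a sfGFP-mCherry tandem fluorescent timer, after mCherry and a GGGS linker. Cells are FACS-sorted into 8 mCherry/sfGFP bins and deep-sequenced. The protein stability index (PSI) is the read-weighted bin average, scaled from 0 (unstable) to 1 (stable). Only peptides with >10 reads are reported; cells were grown at 30 °C in SC-His with glucose.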
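Further: PSI is a weighted mean of sequencing reads over stability bins, variants kept only with over 10 reads, mCherry proximal and sfGFP distal, peptide attached via GGGS linker.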

Sequence | protein stability index
AADSKERPPRPP | 0.625 ± 0.0092
AAGEGSAPTRDR | 0.672 ± 0.028
AAGPILAFSVAC | 0.638 ± 0.039
AAGSVFAEGYTG | 0.686 ± 0.042
AAHSQNPPPPSS | 0.697 ± 0.031
AAIARRNIFKAR | 0.689 ± 0.039
AALSTYPLVTCS | 0.547 ± 0.012
AARYSRSPRTCF | 0.6507 ± 0.0059
AASVYAFLPGLY | 0.651 ± 0.021
AATGPPHPPSPP | 0.804 ± 0.037
AAVRPAHRICYS | 0.733 ± 0.041
AAWGSGMCLCVF | 0.559 ± 0.046
AAWSITFEVLSI | 0.59 ± 0.026
ACARIGRDYVTP | 0.687 ± 0.016
ACKWGVNKSTLG | 0.703 ± 0.043
ACLLYSGFSTEL | 0.654 ± 0.0066
ACLPRARLRFHV | 0.669 ± 0.027
ACRSGTRFAGIW | 0.703 ± 0.016
ACRTGSSLLHPI | 0.706 ± 0.06
ACSLGQSVLVCR | 0.611 ± 0.02
ACSSGGVGWGSV | 0.66 ± 0.034
ACWGFFIAGVRV | 0.598 ± 0.056
ADEGRGVGGVGG | 0.699 ± 0.061
ADGGVVLKVMEG | 0.636 ± 0.077
ADRSVGSAACSP | 0.72 ± 0.15

Sequence | protein stability index
ADWGLLVNRSHH | 0.725 ± 0.084
ADYSRHSCSSSP | 0.681 ± 0.053
AEESPVDKRPKS | 0.728 ± 0.036
AENHCIASRIGH | 0.659 ± 0.019
AETPRGDTRLHE | 0.699 ± 0.021
AFAWERPCEIRF | 0.6984 ± 0.0063
AFCKTGSAGVGI | 0.634 ± 0.046
AFGCGGVPGDFA | 0.63 ± 0.015
AFLLPYTSLLLT | 0.516 ± 0.026
AFLLSSIRPSLR | 0.7486 ± 0.005
AFPAQSLRLRCE | 0.688 ± 0.049
AFRSISERLGGS | 0.784 ± 0.018
AFRVPGSCAFSP | 0.641 ± 0.011
AFSTGSIILEPR | 0.646 ± 0.016
AFYLYLSSTSRF | 0.662 ± 0.0086
AGAGGGGAVVVG | 0.637 ± 0.039
AGCRRGLGMETQ | 0.648 ± 0.012
AGCVAVYGVFLG | 0.619 ± 0.13
AGCVVGWGAWVL | 0.7035 ± 0.0064
AGDTCRLRIHVD | 0.728 ± 0.021
AGEGLIRMIVRP | 0.694 ± 0.024
AGGARADKQGGG | 0.636 ± 0.071
AGGGRGAEGCGG | 0.783 ± 0.069
AGGGVKLWWGRE | 0.657 ± 0.054
AGGPARWCLEVG | 0.7 ± 0.015

Sequence | protein stability index
AGGRSVCGSALP | 0.661 ± 0.016
AGGWLRGGLGVG | 0.7 ± 0.053
AGIFGGGRGVSV | 0.647 ± 0.039
AGIGWGDLASPG | 0.681 ± 0.025
AGKVCGVGRLSI | 0.65 ± 0.033
AGLEPGTAALVD | 0.641 ± 0.094
AGLGLGRVNVMP | 0.743 ± 0.03
AGLSGRGFLRGA | 0.6923 ± 0.0062
AGMATWGILVSL | 0.52 ± 0.008
AGPGGAPVRWCR | 0.723 ± 0.037
AGPKYHLGIPAP | 0.678 ± 0.014
AGPPSPPLHPVG | 0.696 ± 0.026
AGREREVLFNLH | 0.679 ± 0.067
AGRFAPAEARVF | 0.622 ± 0.056
AGRVGVRGVVGG | 0.748 ± 0.1
AGRVRERMRVYG | 0.639 ± 0.01
AGSFGCREAVCP | 0.658 ± 0.044
AGSSQWSLGQLG | 0.6345 ± 0.002
AGVGGCVGLGCR | 0.653 ± 0.042
AHPGHRPSHPPY | 0.727 ± 0.08
AHPPLLPPLLPS | 0.639 ± 0.015
AHPPSPPPTRRP | 0.676 ± 0.0079
AHSAPGHPHDFP | 0.664 ± 0.046
AIALASTNLMAG | 0.713 ± 0.097
AIGDLQKAVPLM | 0.718 ± 0.047

Sequence | protein stability index
AILHFTVSPRVY | 0.561 ± 0.0097
AIRRNVYSCVYG | 0.603 ± 0.032
AIYDSFRISYRT | 0.675 ± 0.028
AIYKGVIVGKKS | 0.646 ± 0.043
AKRFQTTWAGRM | 0.61 ± 0.037
AKSGEVIGSWFG | 0.67127 ± 0.00043
ALCHASSLHLQS | 0.724 ± 0.059
ALGNFPLGASVS | 0.676 ± 0.035
ALGRTPYSGCFL | 0.631 ± 0.021
ALKLVGSVWFGG | 0.676 ± 0.15
ALLAFMSSPRRL | 0.7001 ± 0.0028
ALLPPRPPSPLP | 0.692 ± 0.016
ALRLLRHTLSSS | 0.703 ± 0.016
ALRPYDVQVKFR | 0.622 ± 0.038
ALRVHVPPYVPA | 0.6785 ± 0.0049
ALSPPSPTPASA | 0.694 ± 0.049
ALSPSLWCYFPT | 0.71 ± 0.029
ALSTALVIPLLY | 0.58818 ± 0.00035
ALSVASVAVVPL | 0.56 ± 0.015
ALVLLIPLSLLL | 0.522 ± 0.11
ALVLYVSMSRGY | 0.677 ± 0.054
ALVPESDLGLNF | 0.714 ± 0.026
ALVSRGPCVFGW | 0.662 ± 0.045
ALYLFHAPRTPP | 0.637 ± 0.014
AMSLWFGFFHFV | 0.555 ± 0.018

Sequence | protein stability index
ANAPQAEHASVL | 0.699 ± 0.021
ANKNNIQRTISL | 0.756 ± 0.038
ANRGYRYGASRV | 0.649 ± 0.017
APDLPHSTNLPR | 0.741 ± 0.024
APDPTIPYSPTP | 0.717 ± 0.028
APGSPLDPLTMF | 0.6535 ± 0.0041
APITPNPLYLNH | 0.697 ± 0.055
APKLWLPYTCQS | 0.705 ± 0.059
APLGLSFVSAVI | 0.793 ± 0.087
APNPYHKPPSLR | 0.701 ± 0.11
APPAPPLPAIPL | 0.675 ± 0.038
APPARSSPPPRP | 0.686 ± 0.039
APPHLVTYPLCP | 0.66 ± 0.067
APPPAFLPPPPA | 0.729 ± 0.048
APPPAPPLHPPS | 0.739 ± 0.022
APPPAPSPPLAP | 0.69 ± 0.027
APPPLPSLPPSP | 0.701 ± 0.017
APPPPAPPPLRP | 0.724 ± 0.05
APPPPARDLPPR | 0.721 ± 0.017
APPPPPPDPPLP | 0.685 ± 0.011
APPPRATLPRPP | 0.673 ± 0.055
APPPRSPPPPPL | 0.6796 ± 0.0067
APPSPPSPPGLP | 0.672 ± 0.033
APPSSYSSPPPS | 0.692 ± 0.017
APRPSLTPLSTP | 0.653 ± 0.09

Sequence | protein stability index
APRRVPWLLGRV | 0.578 ± 0.099
APRTPATRPNHP | 0.723 ± 0.045
APSGFRRKDVDL | 0.68 ± 0.034
APSGPFLFIMNA | 0.663 ± 0.047
APSGVGANGWGR | 0.654 ± 0.0085
APSPPSVPSPPP | 0.675 ± 0.0088
APSRPFPAHPPP | 0.602 ± 0.044
APSRTTERILLL | 0.714 ± 0.029
APTPPPPPPPLP | 0.752 ± 0.011
APTQANLRSSRS | 0.73 ± 0.022
APTRVDTAGSCV | 0.676 ± 0.051
APVEVYRHAEAS | 0.67 ± 0.035
APVSLHVPPCSR | 0.669 ± 0.026
AQLGQTCDRDGM | 0.79 ± 0.17
AQPCISGLTCRY | 0.729 ± 0.0096
AQPDAFAGVWGV | 0.7177 ± 0.0028
AQTPNPEPLENN | 0.699 ± 0.033
ARATPLWDLMPP | 0.615 ± 0.094
ARCSPVPWGGGE | 0.647 ± 0.033
ARGSRNHRGAGA | 0.738 ± 0.067
ARIVEQTLCTKS | 0.679 ± 0.057
ARLDVFTMYKDR | 0.748 ± 0.056
ARLRSTPVVLPT | 0.668 ± 0.024
ARLSHLQSLRFI | 0.5476 ± 0.0012
ARLSNLPPSPPR | 0.678 ± 0.032

Sequence | protein stability index
ARNGVCTERSVL | 0.691 ± 0.028
ARNNVRKTEQQC | 0.717 ± 0.11
ARPPPPPPSVDP | 0.719 ± 0.011
ARPPSPRPPPAP | 0.675 ± 0.062
ARPRSGIRGSGV | 0.6848 ± 0.0048
ARRIEGADAERG | 0.668 ± 0.048
ARRVILRANGRI | 0.668 ± 0.035
ARSALFRCGSIA | 0.678 ± 0.02
ARTILGSFILHP | 0.662 ± 0.049
ARYTGPTRIRAE | 0.672 ± 0.1
ASAWHGLVFPPF | 0.779 ± 0.01
ASCQRCGSVLDL | 0.697 ± 0.014
ASDMHRTNKPRE | 0.671 ± 0.085
ASFWLPSNLLPI | 0.7322 ± 0.0013
ASGGWGVGCPGV | 0.716 ± 0.041
ASGKRSGPNPCR | 0.72 ± 0.022
ASGWWGGAVGLR | 0.68375 ± 0.00064
ASKKIDIEKRGT | 0.705 ± 0.14
ASLPDHYPGPKI | 0.759 ± 0.27
ASPRLPSPLSLT | 0.718 ± 0.12
ASRRASLSLRGP | 0.73 ± 0.022
ASRRSRLPWLLL | 0.629 ± 0.0083
ASRSRFMREQMV | 0.567 ± 0.027
ASRWGYSATTVG | 0.697 ± 0.026
ASYVFVVEGGGG | 0.609 ± 0.018

Sequence | protein stability index
ATDAWNKNKESS | 0.542 ± 0.04
ATHPGCATPDAH | 0.704 ± 0.015
ATPAPRGEVLVP | 0.6369 ± 0.0034
ATPGALVSHPTL | 0.729 ± 0.049
ATPPHLLPAPLA | 0.656 ± 0.011
ATSYRPPHFAIP | 0.693 ± 0.011
ATVARNTDTSSP | 0.679 ± 0.017
ATVYFCKVCGGR | 0.687 ± 0.019
AVDPGASFPVSV | 0.698 ± 0.0086
AVGFFAASVPGF | 0.7293 ± 0.0069
AVGMGCLSFFVV | 0.553 ± 0.056
AVGMVLEYFTLG | 0.671 ± 0.029
AVRCEEKGLLLS | 0.674 ± 0.017
AVRVSRFSCGGW | 0.717 ± 0.038
AVSCTAWVTALG | 0.522 ± 0.012
AVSSGPGSCSNP | 0.668 ± 0.013
AVVRGRADCVMV | 0.656 ± 0.017
AVVTVVDRVVRE | 0.594 ± 0.032
AVVYRGGRGGIS | 0.775 ± 0.047
AVWLGVGGRFVG | 0.781 ± 0.053
AVWLVVRGVRGR | 0.679 ± 0.034
